By Kd is commonly meant a measure of binding affinity in units of concentration. What is called IC50 is the concentration that gives 50% inhibition. High values mean weaker potency in that assay, low ones greater potency in that assay.

Experiment [1] concerns the target prefusion stabilized trimeric SARS-CoV-2 spike protein ectodomain (SARS-CoV-2) (UniProt P0DTC2).
For experiment [2] the target is unchanged. In words: ELISA, S-ECD coated on plate, ACE2 protein titrated, anti-GFP detection. (An ELISA detects its analyte on a solid surface through an enzyme-linked reagent.)
The target is the same in experiment [3]. The source holds these as a separate data set.
The target is the same in experiment [4]. The source holds these as a separate data set.
Experiment [5] has the same target. This is another data set of the same source.

Read-outs that look alike come from different tables or passages of the source.

Substance “ACE2-rigid-foldon (from UniProt Q9BYF1 18-615) (receptor)” had a Kd in experiment [1] of less than 0.001 nM. The IC50 in experiment [2] was determined as 0.03 nM.

Substance “ACE2-short-foldon (from UniProt Q9BYF1 18-615) (receptor)” registered a Kd in experiment [1] of 0.53 nM. In addition, in experiment [3], the IC50 turned out to be 0.05 nM.

Take “Monomeric ACE2 (ACE2 (18-615)-(GGGGS)5-HRV3C-eGFP-His8) (from UniProt Q9BYF1 18-615) (receptor)”: the Kd in experiment [4] came out at 34 nM. In addition, the IC50 is 26.6 nM in experiment [5] and 27 nM in experiment [2].

Regarding “ACE2-flexible-foldon (from UniProt Q9BYF1 18-615) (receptor)”, the Kd worked out at 0.34 nM in experiment [4] and 0.52 nM in experiment [1]. Moreover, the IC50 in experiment [5] worked out at 0.07 nM.

In the case of “ACE2-rigid-3HB (from UniProt Q9BYF1 18-615) (receptor)”, the Kd in experiment [1] was less than 0.001 nM. The substance also yielded an IC50 in experiment [2] of 0.03 nM.

As for “ACE2-flexible-3HB (from UniProt Q9BYF1 18-615) (receptor)”, the results for the Kd in experiment [4] and in experiment [1] were 4.4 nM and 1.31 nM, respectively. Further, in experiment [5], the IC50 amounted to 0.06 nM.
